# Starred links: 1 amine or outer side, 2 acyl side, 3 side chain; linkers in the order of their positions; H or OH if unused. Non-standard residues stand in square brackets, D forms with d. No end group written: not given here. *: point of attachment. Tyr(Me) = O-methyl-L-tyrosine, COc1ccc(C[C@H](N[*:1])C(=O)[*:2])cc1; Phe(4-NO2) = N[C@@H](Cc1ccc([N+](=O)[O-])cc1)C(=O)O; 2,4,6‑trimethylbenzoyl = Cc1cc(C)c(C(=O)*)c(C)c1; Benzenesulfonyl(4-OMe) = COc1ccc(S(=O)(=O)*)cc1; Benzoyl(4-tBu) = CC(C)(C)c1ccc(C(=O)*)cc1; Phe(3-F) = N[C@@H](Cc1cccc(F)c1)C(=O)O; Phe(4-F) = N[C@@H](Cc1ccc(F)cc1)C(=O)O; 1Nal = N[C@@H](Cc1cccc2ccccc12)C(=O)O; Phe(2-F) = N[C@@H](Cc1ccccc1F)C(=O)O; Maleoyl = O=C(/C=C\C(=O)[*:2])[*:1]; Benzoyl(4-Br) = O=C(c1ccc(Br)cc1)*; 2Naphthoyl = O=C(c1ccc2ccccc2c1)*; Benzoyl(4-Me) = Cc1ccc(C(=O)*)cc1; pS = N[C@@H](COP(=O)(O)O)C(=O)O; Suc = O=C(CCC(=O)[*:2])[*:1]; Bz = O=C(c1ccccc1)*; Ahx = NCCCCCC(=O)O
# B1: Suc-QGF(3F)F(4NO2)E-NH2 (peptide)
# peptide: QGXXE
# modifications: N-terminal Suc (succinyl) cap; position 3 F(3F); position 4 F(4NO2); C-terminal amide
# B2: Suc-EGF(3F)F(4NO2)E-NH2 (peptide)
# peptide: Suc-EG[Phe(3-F)][Phe(4-NO2)]E-NH2
# SMILES: NC(=O)[C@H](CCC(=O)O)NC(=O)[C@H](Cc1ccc([N+](=O)[O-])cc1)NC(=O)[C@H](Cc1cccc(F)c1)NC(=O)CNC(=O)[C@H](CCC(=O)O)NC(=O)CCC(=O)O
# B3: DpSGIFE-NH2 (peptide)
# peptide: D[pS]GIFE-NH2
# modifications: N-terminus assumed
# SMILES: CC[C@H](C)[C@H](NC(=O)CNC(=O)[C@H](COP(=O)(O)O)NC(=O)[C@@H](N)CC(=O)O)C(=O)N[C@@H](Cc1ccccc1)C(=O)N[C@@H](CCC(=O)O)C(N)=O
# B4: 4-(MeO)PhSO2-dEGF(3F)WE-NH2 (peptide)
# peptide: {Benzenesulfonyl(4-OMe)}-[dD]EG[Phe(3-F)]WE-NH2
# SMILES: COc1ccc(S(=O)(=O)N[C@H](CC(=O)O)C(=O)N[C@@H](CCC(=O)O)C(=O)NCC(=O)N[C@@H](Cc2cccc(F)c2)C(=O)N[C@@H](Cc2c[nH]c3ccccc23)C(=O)N[C@@H](CCC(=O)O)C(N)=O)cc1
# notes: also called UBP022
# B5: Mal-EGF(3F)F(4NO2)E-NH2 (peptide)
# peptide: Maleoyl-EG[Phe(3-F)][Phe(4-NO2)]E-NH2
# SMILES: NC(=O)[C@H](CCC(=O)O)NC(=O)[C@H](Cc1ccc([N+](=O)[O-])cc1)NC(=O)[C@H](Cc1cccc(F)c1)NC(=O)CNC(=O)[C@H](CCC(=O)O)NC(=O)/C=C\C(=O)O
# B6: Suc-EGYF(4NO2)E-NH2 (peptide)
# peptide: Suc-EGY[Phe(4-NO2)]E-NH2
# SMILES: NC(=O)[C@H](CCC(=O)O)NC(=O)[C@H](Cc1ccc([N+](=O)[O-])cc1)NC(=O)[C@H](Cc1ccc(O)cc1)NC(=O)CNC(=O)[C@H](CCC(=O)O)NC(=O)CCC(=O)O
# B7: Suc-EGF(4F)F(4NO2)E-NH2 (peptide)
# peptide: Suc-EG[Phe(4-F)][Phe(4-NO2)]E-NH2
# SMILES: NC(=O)[C@H](CCC(=O)O)NC(=O)[C@H](Cc1ccc([N+](=O)[O-])cc1)NC(=O)[C@H](Cc1ccc(F)cc1)NC(=O)CNC(=O)[C@H](CCC(=O)O)NC(=O)CCC(=O)O
# B8: Suc-EGF(4NO2)1NalE-NH2 (peptide)
# peptide: Suc-EG[Phe(4-NO2)][1Nal]E-NH2
# SMILES: NC(=O)[C@H](CCC(=O)O)NC(=O)[C@H](Cc1cccc2ccccc12)NC(=O)[C@H](Cc1ccc([N+](=O)[O-])cc1)NC(=O)CNC(=O)[C@H](CCC(=O)O)NC(=O)CCC(=O)O
# B9: Suc-EGF(2F)Y(Me)E-NH2 (peptide)
# peptide: Suc-EG[Phe(2-F)][Tyr(Me)]E-NH2
# SMILES: COc1ccc(C[C@H](NC(=O)[C@H](Cc2ccccc2F)NC(=O)CNC(=O)[C@H](CCC(=O)O)NC(=O)CCC(=O)O)C(=O)N[C@@H](CCC(=O)O)C(N)=O)cc1
# B10: Suc-EGF(2F)F(4NO2)E-NH2 (peptide)
# peptide: Suc-EG[Phe(2-F)][Phe(4-NO2)]E-NH2
# SMILES: NC(=O)[C@H](CCC(=O)O)NC(=O)[C@H](Cc1ccc([N+](=O)[O-])cc1)NC(=O)[C@H](Cc1ccccc1F)NC(=O)CNC(=O)[C@H](CCC(=O)O)NC(=O)CCC(=O)O
# Legend:
# [1] = target: T1, Beta Transducin repeat-containing protein (βTrCP), tag cleaved and complexed with Skp1 (UniProt Q9Y297 175-605; P63208 1-163); assay: FP competition dose-response, fluorescein-IkB peptide tracer on βTrCP/Skp1 (average Ki; assay not given)
# T1 construct: the FP protocol says that Ki is determined from FP dose-response curves; also called βTrCP/Skp1
# Skp2 = Skp2 (UniProt Q13309 1-424, limits assumed); assay: cell-based or functional assay
# Fbw7 = Fbw7 (UniProt Q969H0 263-707, limits assumed); assay: cell-based or functional assay
# Fbw7, sequence (Q969H0 263-707 limits assumed): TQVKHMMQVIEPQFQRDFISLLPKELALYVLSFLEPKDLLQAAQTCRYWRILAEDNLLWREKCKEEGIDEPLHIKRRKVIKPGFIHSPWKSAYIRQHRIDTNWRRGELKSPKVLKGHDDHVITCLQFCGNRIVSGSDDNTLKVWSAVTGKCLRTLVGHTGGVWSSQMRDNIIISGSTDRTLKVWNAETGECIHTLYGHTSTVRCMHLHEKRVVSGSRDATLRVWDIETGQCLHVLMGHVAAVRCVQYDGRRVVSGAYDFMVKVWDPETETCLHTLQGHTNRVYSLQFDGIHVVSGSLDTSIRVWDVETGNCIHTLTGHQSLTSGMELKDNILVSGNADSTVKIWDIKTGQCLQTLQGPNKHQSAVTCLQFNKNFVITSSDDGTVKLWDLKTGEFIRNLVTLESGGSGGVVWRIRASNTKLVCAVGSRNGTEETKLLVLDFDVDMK
# Skp2, sequence (Q13309 whole entry): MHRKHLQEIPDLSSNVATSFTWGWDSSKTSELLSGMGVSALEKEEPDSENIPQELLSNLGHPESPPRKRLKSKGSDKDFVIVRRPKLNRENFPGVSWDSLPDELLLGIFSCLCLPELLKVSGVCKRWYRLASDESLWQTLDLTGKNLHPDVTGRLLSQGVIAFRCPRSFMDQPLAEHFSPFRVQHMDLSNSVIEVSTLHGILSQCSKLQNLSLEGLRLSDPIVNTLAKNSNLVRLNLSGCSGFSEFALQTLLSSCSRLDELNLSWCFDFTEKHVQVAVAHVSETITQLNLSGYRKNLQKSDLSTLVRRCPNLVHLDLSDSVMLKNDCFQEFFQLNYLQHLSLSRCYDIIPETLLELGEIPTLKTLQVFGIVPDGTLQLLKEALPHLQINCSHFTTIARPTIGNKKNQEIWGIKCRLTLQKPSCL
# T1 sequence (Q9Y297 175-605, chain 1 of 2): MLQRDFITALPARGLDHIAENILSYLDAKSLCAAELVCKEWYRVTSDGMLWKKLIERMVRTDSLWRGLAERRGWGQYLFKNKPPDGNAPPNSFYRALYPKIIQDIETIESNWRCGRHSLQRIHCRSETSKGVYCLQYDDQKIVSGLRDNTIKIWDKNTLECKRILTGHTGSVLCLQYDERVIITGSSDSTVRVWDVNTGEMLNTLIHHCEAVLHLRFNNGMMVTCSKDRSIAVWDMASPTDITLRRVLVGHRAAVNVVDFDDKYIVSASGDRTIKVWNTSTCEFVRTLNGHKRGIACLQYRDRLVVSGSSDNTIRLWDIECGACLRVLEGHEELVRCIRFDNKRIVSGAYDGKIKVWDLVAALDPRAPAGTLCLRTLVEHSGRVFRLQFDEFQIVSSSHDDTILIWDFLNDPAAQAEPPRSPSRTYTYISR
# T1 sequence (P63208 whole entry, chain 2 of 2): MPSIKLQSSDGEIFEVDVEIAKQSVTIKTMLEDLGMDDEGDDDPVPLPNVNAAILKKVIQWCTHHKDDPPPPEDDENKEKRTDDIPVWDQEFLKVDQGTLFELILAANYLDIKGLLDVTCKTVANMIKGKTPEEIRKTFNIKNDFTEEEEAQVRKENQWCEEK
Binder,Ki [1] [nM],% Inhibition Skp2 @ 10 µM (Skp2) [%],% Inhibition Skp2 @ (100 µM) (Skp2) [%],% Inhibition Fbw7 @ 10 µM (Fbw7) [%],% Inhibition Fbw7 @ (100 µM) (Fbw7) [%]
{Benzenesulfonyl(4-OMe)}-[dD]EG[Phe(3-F)]WE[Ahx]K(Benzoyl(4-Me))-NH2 (also called UBP057) [4-(MeO)PhSO2-dEGF(3F)WE-Ahx-K(NHCO-(4-(ME)-Ph))-NH2],2.88,,,,
B1,,0,0,0,0
{Benzenesulfonyl(4-OMe)}-[dD]EG[Phe(3-F)]WE[Ahx]K(Bz)-NH2 (also called UBP061) [4-(MeO)PhSO2-dEGF(3F)WE-Ahx-K(NHCOPh)-NH2],3.1,,,,
{Benzenesulfonyl(4-OMe)}-[dD]EG[Phe(3-F)]WE[Ahx]K(Benzoyl(4-tBu))-NH2 (also called UBP054) [4-(MeO)PhSO2-dEGF(3F)WE-Ahx-K(NHCO-(4-(t-Bu-Ph))-NH2],1.94,,,,
{Benzenesulfonyl(4-OMe)}-[dD]EG[Phe(3-F)]WE[Ahx]K(4‑bromophenylsulfonyl)-NH2 (also called UBP059) [4-(MeO)PhSO2-dEGF(3F)WE-Ahx-K(NHSO2-(4-(Br)-Ph))-NH2],2.96,,,,
B2,,0,3,0,2
{Benzenesulfonyl(4-OMe)}-[dD]EG[Phe(3-F)]WE[Ahx]K(Benzoyl(4-Br))-NH2 (also called UBP058) [4-(MeO)PhSO2-dEGF(3F)WE-Ahx-K(NHCO-(4-(Br)-Ph))-NH2],3.35,,,,
B3,,8,13,0,0
Suc-EG[Phe(3-F)][1Nal]E-NH2 [Suc-EGF(3F)1NalE-NH2],,0,12,3,0
{Benzenesulfonyl(4-OMe)}-[dD]EG[Phe(3-F)]WE[Ahx]K(2Naphthoyl)-NH2 (also called UBP055) [4-(MeO)PhSO2-dEGF(3F)WE-Ahx-K(NHCO-2-Naph)-NH2],1.85,,,,
B4,5.78,,,,
Suc-EGY[1Nal]E-NH2 [Suc-EGY1NalE-NH2],,0,6,1,5
"{Benzenesulfonyl(4-OMe)}-[dD]EG[Phe(3-F)]WE[Ahx]K(2,4,6‑trimethylbenzoyl)-NH2 (also called UBP056) [4-(MeO)PhSO2-dEGF(3F)WE-Ahx-K(NHCO-(2,4,6-(Me)3-Ph))-NH2]",3.39,,,,
B5,,0,14,0,18
B6,,11,31,0,0
{Benzenesulfonyl(4-OMe)}-[dD]EG[Phe(3-F)]WE[Ahx]K(4‑chlorobenzoyl)-NH2 (also called UBP060) [4-(MeO)PhSO2-dEGF(3F)WE-Ahx-K(NHCO-(4-(Cl)-Ph))-NH2],3.64,,,,
B7,,0,0,0,0
B8,,12,6,14,28
B9,,0,4,0,4
B10,,8,11,0,0

# Reference: patent US20190106460A1 (published 2019)
